Test results reported in US20140234339A1 (JULIUS MAXIMILIANS UNIVERSIT T W RZBURG, published 2014).

Tests used:
[1] = target: T1, IsaA (immunodominant structure IsaA of Staphylococcus aureus) (Staphylococcus aureus, UniProt P99160 30-233, limits assumed); assay: SPR (BIACORE 2000), UK66-2 captured via anti-Fab antibody, IsaA as analyte, 25 C, 1:1 Langmuir fit
T1 construct: The ELISA text calls it soluble recombinant IsaA; also called IsaA antigen; soluble recombinant IsaA
T1 sequence (looked up): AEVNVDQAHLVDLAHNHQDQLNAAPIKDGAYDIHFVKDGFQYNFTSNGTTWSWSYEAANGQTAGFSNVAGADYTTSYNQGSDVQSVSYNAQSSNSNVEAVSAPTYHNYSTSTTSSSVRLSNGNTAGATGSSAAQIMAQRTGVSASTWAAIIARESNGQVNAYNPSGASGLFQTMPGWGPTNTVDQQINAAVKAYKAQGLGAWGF

[2] = target: T1, IsaA (immunodominant structure IsaA of …); assay: SPR (BIACORE 2000), UK66-2 captured via anti-Fab antibody, IsaA as analyte, 25 C, 1:1 Langmuir fit, two independent measurements

B1: antibody UK66-2 (antibody, V domains shown)
VH: EVQLLESGGGLVQPGGSLRLSCAASGFTFSNYYMSWVRQAPGKGLEWVSDINGNGGSTYYPDTVKGRFTISRDNSKNTLYLQMNSLRAEDTAVYYCVRRGGYYALDYWGQGTTVTVSS
VL: DVVMTQTPLSLSVTPGQPASISCRSSQSLVHINGNTYLHWYLQKPGQSPQLLIYRVSNRFSGVPDRFSGSGSGTDFTLKISRVEAEDVGVYYCSQSTHVPWTFGGGTKLELKR
notes: In the SPR assay it was captured by an anti-Fab antibody; also called anti-IsaA antibody UK66-2
koff [1]: 0.0018 s⁻¹
kon [1]: 370000 M⁻¹ s⁻¹
Kd [2]: 4.8 nM
